# Data: PMC6005164, “A novel thymidylate synthase from the Vibrionales, Alteromonadales, Aeromonadales, and Pasteurellales (VAAP) clade with altered nucleotide and folate binding sites” (PeerJ, 2018)
# T1: VpTS (Vibrio parahaemolyticus, UniProt Q87SA0)
# T1 construct: gene thyA; full-length from codon-optimized synthetic gene in pJexpress414; E. coli BL21(DE3)-SI; 35,944 Da with tag; homodimer 70 kDa
# T1 sequence (Q87SA0 1-283): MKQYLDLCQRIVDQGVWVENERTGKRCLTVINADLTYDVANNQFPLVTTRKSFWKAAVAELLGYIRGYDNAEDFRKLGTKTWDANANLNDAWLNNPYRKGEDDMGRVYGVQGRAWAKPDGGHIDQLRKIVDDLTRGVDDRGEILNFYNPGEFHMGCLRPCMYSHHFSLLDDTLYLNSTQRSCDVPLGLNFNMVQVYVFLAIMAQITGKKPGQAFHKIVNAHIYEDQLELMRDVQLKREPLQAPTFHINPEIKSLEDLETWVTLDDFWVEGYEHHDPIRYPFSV
# Tests used:
# VpTS = molecular target: T1, VpTS; assay: spectrophotometric dihydrofolate formation at […] nm, dose-response fit; assay type: biochemical
# purified protein [1] = substrate: O=c1ccn([C@H]2C[C@H](O)[C@@H](COP(=O)(O)O)O2)c(=O)[nH]1; assay: purified protein; assay type: biochemical, Vibrio parahaemolyticus; settings: co-substrate mTHF, dUMP 0–150 µM, 50 mM Tris-HCl pH 7.5, 25 mM MgCl2, 5 mM DTT, 1 mM EDTA, 30 °C
# purified protein [2] = substrate: Nc1nc2c(c(=O)[nH]1)N1CN(c3ccc(C(=O)N[C@@H](CCC(=O)O)C(=O)O)cc3)C[C@H]1CN2; assay: purified protein; assay type: biochemical, Vibrio parahaemolyticus; settings: co-substrate dUMP, mTHF 0–300 µM, 50 mM Tris-HCl pH 7.5, 25 mM MgCl2, 5 mM DTT, 1 mM EDTA, 30 °C, varied: cofactor
# [3] = molecular target: the molecule itself; assay: SEC; Superdex 75 10/300, 1 mL/min, Tris HCl 20 mM pH 7.5, NaCl 100 mM; native molecular weight from a Kav vs. log MW plot of standards
molecule,measurement,setting,value
COc1cc(Cc2cnc(N)nc2N)cc(OC)c1OC [trimethoprim],IC50,VpTS,106 ± 11.4 µM
"VpTS (Vibrio parahaemolyticus RIMD 2210633) (protein, full-length from codon-optimized synthetic gene in pJexpress414; E. coli BL21(DE3)-SI; 35,944 Da with tag; homodimer 70 kDa) MKQYLDLCQRIVDQGVWVENERTGKRCLTVINADLTYDVANNQFPLVTTRKSFWKAAVAELLGYIRGYDNAEDFRKLGTKTWDANANLNDAWLNNPYRKGEDDMGRVYGVQGRAWAKPDGGHIDQLRKIVDDLTRGVDDRGEILNFYNPGEFHMGCLRPCMYSHHFSLLDDTLYLNSTQRSCDVPLGLNFNMVQVYVFLAIMAQITGKKPGQAFHKIVNAHIYEDQLELMRDVQLKREPLQAPTFHINPEIKSLEDLETWVTLDDFWVEGYEHHDPIRYPFSV",Km,purified protein [1],27.3 ± 4.3 µM
same,kcat,purified protein [1],0.3 s⁻¹
same,Km,purified protein [2],96.3 ± 18 µM
same,kcat,purified protein [2],0.3 s⁻¹
"recombinant thymidylate synthase from Vibrio parahaemolyticus FIM-S1708+ (enzyme, UniProt Q87SA0 1-283, looked up, thymidylate synthase (folate-dependent, thyA) of Vibrio parahaemolyticus strain FIM-S1708+, GenBank WP_100088861.1; codon-optimized synthetic gene in pJexpress414; theoretical mass with tag 35,944 Da; the 35 kDa band is compared with the mass that includes the 10-His tag, so the tag was probably still on the protein in the size exclusion run; also called VpTS; TS) MKQYLDLCQRIVDQGVWVENERTGKRCLTVINADLTYDVANNQFPLVTTRKSFWKAAVAELLGYIRGYDNAEDFRKLGTKTWDANANLNDAWLNNPYRKGEDDMGRVYGVQGRAWAKPDGGHIDQLRKIVDDLTRGVDDRGEILNFYNPGEFHMGCLRPCMYSHHFSLLDDTLYLNSTQRSCDVPLGLNFNMVQVYVFLAIMAQITGKKPGQAFHKIVNAHIYEDQLELMRDVQLKREPLQAPTFHINPEIKSLEDLETWVTLDDFWVEGYEHHDPIRYPFSV",stoichiometry N,[3],2
